# Data reported in US9164103B2, “Monitoring and inhibiting human immunodeficiency virus infection by modulating HMGB1 dependent triggering of HIV-1 replication and persistence” (priority 2008, dated 2015).
# Tests used:
# [1] = system: R5-HIV-1Ba-L; experiment: HIV-1 replication in infected iDCs (p24 ELISA in culture supernatant); format: cell-based; details: 3 days, 1 μg/ml
# Protocol: FIGS. 6 (a), (b) and (c). Exogenous rh-HMGB1 triggers HIV-1 and HIV-2 replication in iDC. (a) HIV-1-infected iDC were cultured alone or in the presence of aNK cells for 3 days. Rh-HMGB1 (1 μg/ml) was added in some cultures. HIV replication was measured by p24 quantification in culture supernatant (b) HIV1-infected iDC were cultured alone or in the presence of aNK cells for 3 days. Blocking anti-HMGB1 antibodies (10 μg/ml) or glycyrrhizin (10 μg/ml) were added at culture initiation. HIV replication was measured by p24 quantification in culture supernatant. The mean±sd of three independent experiments is shown. Statistical comparisons were made with the non parametric Mann-Whitney test. * p<0.05; (c) HIV-2-infected iDC were cultured alone or in the presence of aNK cells for 3 days. Rh-HMGB1 (1 μg/ml) was added in some cultures. HIV replication was measured by p24 quantification in culture supernatant.
# Exogenous HMGB1 was recently reported to increase HIV-1 replication in infected monocytic cell lines38, and to induce in vitro the reactivation of HIV-1 in PBMCs from HIV-1-infected patients under antiretroviral therapy39. Therefore, the question of the role of HMGB1 in the NK-dependent triggering of HIV replication in DCs was addressed. […] To investigate the influence of HMGB1 in the triggering of HIV-1 replication in infected-iDC-aNK cocultures, HMGB1-specific neutralizing antibodies or glycyrrhizin were added to these cocultures and p24 production was measured in the supernatant. […] They also indicate that aNK cell-dependent stimulation of HIV-1 replication in iDCs is mediated by HMGB1.
# Virus stock preparation was prepared by amplification of R5-HIV-1Ba-L on MDM from healthy donors. Viral stock was then clarified by centrifugation prior to determination of HIV1 p24 concentration. iDCs were plated in 96-well culture plates at 200,000 cells/well and incubated for 3 hours at 37° C. in a 5% CO2 atmosphere with R5-HIV-1BAL at various concentrations (0.001 to 10 ng p24/ml). Cells were harvested, washed four times with media containing 10% FCS and, when indicated, rNK or aNK cells were added at a NK:DC ratio of 1:5, unless otherwise indicated. NK-DC cocultures lasted 24 h before analysis of the maturation stage of DCs and/or quantification of viral production. In some experiments (FIG. 6), HIV-1 infected iDCs were incubated alone or with aNK cells for 3 days, in the presence of rh-HMGB1 (1 μg/ml) (R&DSystems), and in some cultures in the presence of rabbit antiHMGB1 Abs (10 μg/ml) (Abcam, Cambridge, UK) or Glycyrrhizin (10 μg/ml).
# The concentration of HIV-1 in the supernatant of infected cell cultures was determined by measuring the amount of p24 protein by ELISA (Ingen, Belgium). DNA from cells was extracted using the GIAamp DNA Blood Mini Kit (Qiagen, Basel, Switzerland) and quantified HIV-1 proviral load by RT-PCR as described previously54. The frequency of HIV-1-infected cells was determined by flow cytometry to detect intracellular p24 molecule. Cells were surface stained with antibodies specific for CD40 (BD Biosciences, San Jose, Calif.) to target DC and intracellular stained with p24-specific antibodies (Coulter). Stained cells were fixed in 1% PFA, immediately acquired on a FACScalibur (Becton Dickinson) and analyzed with FlowJo software. In some experiments infected DCs were imaged, after immunofluorescence, by laser scanning confocal microscopy.
# [2] = system: iDCs; experiment: Cytokine and chemokine production by DCs (MAP/Luminex); format: cell-based, human; details: iDCs 48 h, 1 or 10 μg/ml
# Protocol: FIG. 3 (a)-(e). aNK-dependent maturation of HIV-1-infected iDCs is mediated by HMGB1 and involves RAGE. (a) Left panel: iDCs were cultured for 24 h either alone or with aNK cells, in the presence of blocking anti-HMGB1 antibodies (10 μg/ml) or glycyrrhizin (10 μg/ml). The maturation status of DCs was determined by flow cytometry with CD86 and HLA-DR—specific antibodies. Right panel: same experiment, but performed with HIV-1 infected iDCs. Data represent mean±sd of at least three independent experiments, and statistical comparisons were made with the non parametric Mann-Whitney test. * p<0.05. (b) iDC (10^6 cells/ml) were cultured for 48 h with increasing concentrations (1-10 μg/ml) of rh-HMGB1. Cells were then stained with anti-CD86, -HLA-DR, -CD80, -CD83, DC-LAMP and -CD40 antibodies and analyzed by flow cytometry. (c) Influence of rh-HMGB1 on cytokine and chemokine production (determined by MAP) by DCs. iDCs (10^6 cells/ml) were incubated for 48 h in medium or in presence of rh-HMGB1 (1 or 10 μg/ml). As a positive control, iDCs were stimulated with LPS (DC0). […] (e) iDC, DC0, uninfected or HIV-1-infected iDC cocultured for 24 h with aNK cells, were incubated with rh-HMGB1 (1 μg/ml) and subsequently stained with anti-RAGE antibodies and analyzed by flow cytometry. […]
# [3] = system: HIV-2; experiment: HIV-2 replication in infected iDCs (p24 ELISA in culture supernatant); format: cell-based; details: HIV-2-infected iDC, day 3
# Protocol: FIGS. 6 (a), (b) and (c). Exogenous rh-HMGB1 triggers HIV-1 and HIV-2 replication in iDC. (a) HIV-1-infected iDC were cultured alone or in the presence of aNK cells for 3 days. Rh-HMGB1 (1 μg/ml) was added in some cultures. HIV replication was measured by p24 quantification in culture supernatant (b) HIV1-infected iDC were cultured alone or in the presence of aNK cells for 3 days. Blocking anti-HMGB1 antibodies (10 μg/ml) or glycyrrhizin (10 μg/ml) were added at culture initiation. HIV replication was measured by p24 quantification in culture supernatant. The mean±sd of three independent experiments is shown. Statistical comparisons were made with the non parametric Mann-Whitney test. * p<0.05; (c) HIV-2-infected iDC were cultured alone or in the presence of aNK cells for 3 days. Rh-HMGB1 (1 μg/ml) was added in some cultures. HIV replication was measured by p24 quantification in culture supernatant. […]
# 2—NK-DC cocultures: cells were harvested, washed three times with RPMI containing 10% FCS and, when indicated, aNK cells were added at a NK:DC ratio of 1:5. […] NK-DC cocultures lasted 3 to 7 days before quantification of viral production in culture supernatants.
# 3—Quantification of HIV-2 viral production: the concentration of HIV-2 particles in the supernatants was determined with the p24 ELISA kit (Ingen, Belgium).
# [4] = system: RAGE; experiment: Surface expression of RAGE on DCs (flow cytometry); format: cell-based, human; details: uninfected iDCs, 1 μg/ml
# Protocol: (d) Flow cytometry detection of surface expression of RAGE by iDCs, DC0, or iDCs incubated with rh-HMGB1 (1 μg/ml). iDCs were either non infected or infected with HIV-1 (1 ng/ml p24 for 3 h). (e) iDC, DC0, uninfected or HIV-1-infected iDC cocultured for 24 h with aNK cells, were incubated with rh-HMGB1 (1 μg/ml) and subsequently stained with anti-RAGE antibodies and analyzed by flow cytometry. NK cells were excluded from the analysis through the co-staining with CD3- and CD56-specific antibodies (CD3^−CD56^+).
# The possible involvement of RAGE during NK-DC cross-talk was evaluated with the same approach, comparing RAGE expression on DCs cocultured with aNK cells and DC cultured alone.
# Phenotypic analysis of DCs and characterization of their maturation stage was performed by flow cytometry. DCs were stained for 20 min at 4° C. with antibodies specific for CD80, CD83, CD86, HLA-DR, CD40, DC-LAMP or DC-SIGN (all antibodies from BD Biosciences, San Jose, Calif.) diluted in 100 μl of PBS/10% FCS/0.1% NaN3. In some experiments, antibody specific for HMGB1-receptor, RAGE (Abcam), was used to stain DCs. After two washings, cells were fixed in 1% PFA, immediately acquired on a FACScalibur (Becton Dickinson) and analyzed with Flow Jo software.
# [5] = system: iDC; experiment: Direct phenotypic maturation of iDCs (flow cytometry of maturation markers); format: cell-based, human
# Excerpt: Co-staining with HLA-DR and CD86 specific antibodies allowed the identification of mature DCs (CD86^brightHLA-DR^bright). Data from a representative experiment out of three independent experiments are shown. […] The proportion of mDCs induced by LPS (DC0) (78.1% CD86^brightHLA-DR^bright) is shown as a positive control. […] These experiments have been performed on primary cells from a number of donors, and representative data from three of them are shown. When indicated, statistical analyses were made with the non parametric Mann-Whitney test. * p<0.05, ** p=0.02.
# The maturation status of DCs was determined by flow cytometry with CD86 and HLA-DR—specific antibodies. […] (b) iDC (10^6 cells/ml) were cultured for 48 h with increasing concentrations (1-10 μg/ml) of rh-HMGB1. Cells were then stained with anti-CD86, -HLA-DR, -CD80, -CD83, DC-LAMP and -CD40 antibodies and analyzed by flow cytometry.
molecule,measurement,setting,value
"rh-HMGB1: recombinant human HMGB1 protein (R&D Systems), added exogenously (protein, UniProt P09429 1-215, looked up) High mobility group protein B1: MGKGDPKKPRGKMSSYAFFVQTCREEHKKKHPDASVNFSEFSKKCSERWKTMSAKEKGKFEDMAKADKARYEREMKTYIPPKGETKKKFKDPNAPKRPPSAFFLFCSEYRPKIKGEHPGLSIGDVAKKLGEMWNNTAADDKQPYEKKAAKLKEKYEKDIAAYRAKGKPDAAKKGVVKAEKSKKKKEEEEDEEDEEDEEEEEDEEDEDEEEDDDDE",p24 production,[1]; HIV-1-infected iDC cocultured with aNK cells,significant stimulatory effect
same,production of p24 in culture supernatants,[1]; HIV-1-infected iDC cultured alone,enhancing dramatically the production of p24
same,"release of the chemokines MCP1, MIP-1α, MIP-1β and IL-8",[2],increased release
same,HIV-2 viral replication (p24),[3],slight increase in viral replication
same,RAGE expression on iDCs,[4],down-regulation of RAGE
same,percentage of CD86bright HLA-DRbright DCs,"[5]; 10 μg/ml, 48 h of culture, medium alone 65%",71%
same,phenotypic maturation of iDC,"[5]; 1 to 10 μg/ml, 24 h, similar at 48 h",did not induce phenotypic maturation of iDC
same,"expression of CD80, CD83 and DC-lamp",[5]; rh-HMGB1-treated DCs compared with mDC (DC0),not fully mature
